Data from patent publication US11981731B2, “Targeting cytotoxic cells with chimeric receptors for adoptive immunotherapy” (Novartis AG, priority 2014, dated 2024).

Assays:
K562-meso-HLACw = experiment: KIR2DL3 suppression of KIR-CAR cytotoxicity, 51Cr release against K562-meso-HLACw; type: cell-based, human; details: coexpressed with SS1-KIRS2/DAP12, HLA-Cw on the target cells
Protocol: K562 cells (K562) or K562 cells expressing mesothelin (K562-meso) were transduced with the HLA-Cw3 allele followed by fluorescence activated cell sorting to obtain K562 cells expressing HLA-Cw with (K562-meso-HLACw) or without (K562-HLACw) expression of mesothelin. HLA-Cw3 expression was assessed by flow cytometry using an APC-conjugated monoclonal antibody that recognizes HLA-A, B and C alleles (clone W6/32).
Primary human T cells were stimulated with CD3/28 microbeads followed by lentiviral transduction with SS1-KIRS2 and DAP12 (SS1-KIRS2) or mock transduced (NTD) in combination with wild-type KIR2DL3. The T cells were expanded until the end of log-phase growth. The surface expression of the mesothelin-specific CAR and KIR2DL3 was determined by staining with mesothelin-Fc followed by PE-conjugated goat-anti-human Fc and a monoclonal antibody to the KIR2DL3 ectodomain.
T cell that were generated and characterized as described in FIG. 21 were mixed with 51-Cr labeled target K562 cells that were generated and characterized as described in FIG. 22. Cytotoxicity was determined by measuring the fraction of ^51Cr released into the supernatant at 4 hours compared target cells without effector cells.

[1] = test system: K562 cells engineered to express mesothelin; experiment: Antigen-triggered cytokine secretion; type: cell-based, human; details: Example 14, T cells:targets 2:1, 24 hours, ELISA
Protocol: Cytokine production of the huMeso-KIRS2-expressing CAR cells was also assessed. Primary human T cells were simulated, transduced with the huMes-KIRS2 and expanded as previously described. Following expansion, the transduced T cells were mixed with K562 (mesothelin-negative cells, empty bars) or K562 cells engineered to express mesothelin (black bars) at a ratio of 2:1. Cytokine concentrations (IFNγ and IL-2) were determined in supernatants following 24 hours of stimulation by ELISA for the indicated cytokines.

[2] = test system: mesothelioma-derived cells expressing mesothelin (EM-meso cells); experiment: EM-meso subcutaneous xenograft in NSG mice, tumor volume by caliper; type: in vivo, mouse; details: 4 million T cells i.v. day 20
Protocol: 20 days following tumor implantation, each animal was injected intravenously with 5×10^6 T cells that were stimulated with anti-CD3/anti-CD28 stimulator beads followed lentiviral transduction with a series of CD3ζ-based CAR with or without a costimulatory domain (SS1-ζ, SS1-BBζ and SS1-28ζ) or the mesothelin-specific KIR-based CARs, SS1-KIRS2 with DAP12. Mock transduced T cells (NTD) were used as a control. Tumor volume was measured by caliper at the indicated times (n=7 mice per group). […] The frequency of human CD45+ T cells was assessed at the end of the experiment by flow cytometry, and data are expressed as a percentage of total viable cells in the blood, spleen and tumor digest. […] The frequency of CD3+ human lymphocytes in tumors at day 30 (10 days following CAR T infusion) was assessed by flow cytometry. […] 4 million T cells expressing DAP12 and dsRed (DAP12), SS1-28z or SS1-KIRS2 and DAP12 (SS1-KIRS2) were injected intravenously on day 20, and tumor volume was assessed over time via caliper measurement. […] Antigen-specific cytotoxicity was assessed by coculturing with firefly luciferase expressing EM-meso cells or EMp cells (parental EM cells lacking mesothelin expression) at indicated E:T ratios for 18 hours. […]
Animal models can also be used to measure activity of a CAR-expressing cell. […] Animals are assessed for tumor progression at weekly intervals. […]

Molecule	IL-2 production [1]	further results
KIR2DL3: wild-type KIR2DL3 inhibitory receptor co-expressed in T cells (SEQ ID NO: 345) (protein) MSLMVVSMVCVGFFLLQGAWPHEGVHRKPSLLAHPGPLVKSEETVILQCWSDVRFQHFLLHREGKFKDTLHLIGEHHDGVSKANFSIGPMMQDLAGTYRCYGSVTHSPYQLSAPSDPLDIVITGLYEKPSLSAQPGPTVLAGESVTLSCSSRSSYDMYHLSREGEAHERRFSAGPKVNGTFQADFPLGPATHGGTYRCFGSFRDSPYEWSNSSDPLLVSVTGNPSNSWPSPTEPSSETGNPRHLHVLIGTSVVIILFILLLFFLLHRWCCNKKNAVVMDQEPAGNRTVNREDSDEQDPQEVTYAQLNHCVFTQRKITRPSQRPKTPPTDIIVYTELPNAEP		effect on antigen specific cytotoxicity of co-expressed KIR CAR (K562-meso-HLACw): can suppress antigen specific cytotoxicity
M17: human anti-mesothelin scFv, SEQ ID NO: 246 (protein) scFv: EVQLVESGGGLVQPGRSLRLSCAASGFTFDDYAMHWVRQAPGKGLEWVSGISWNSGSTGYADSVKGRFTISRDNAKNSLYLQMNSLRAEDTALYYCAKDSSSWYGGGSAFDIWGQGTMVTVSSGGGGSGGGGSGGGGSSSELTQDPAVSVALGQTVRITCQGDSLRSYYASWYQQKPGQAPVLVIYGKNNRPSGIPDRFSGSSSGNTASLTITGAQAEDEADYYCNSRGSSGNHYVFGTGTKVTVL	produced IL-2	
M16: human anti-mesothelin scFv, SEQ ID NO: 245 (protein) scFv: EVQLVESGGGLVQPGRSLRLSCAASGFTFDDYAMHWVRQAPGKGLEWVSGISWNSGSTGYADSVKGRFTISRDNAKNSLYLQMNSLRAEDTALYYCAKDSSSWYGGGSAFDIWGQGTMVTVSSGGGGSGGGGSGGGGSSSELTQEPAVSVALGQTVRITCQGDSLRSYYASWYQQKPGQAPVLVIFGRSRRPSGIPDRFSGSSSGNTASLIITGAQAEDEADYYCNSRDNTANHYVFGTGTKLTVL	produced IL-2	
DAP12: T cells expressing DAP12 and dsRed; DAP12 adaptor molecule, SEQ ID NO: 368 (protein) MGGLEPCSRFLLLPLLLAVSGLRPVQVQAQSDCSCSTVSPGVLAGIVMGDLVLTVLIALAVYFLGRLVPRGRGAAEAATRKQRITETESPYQELQGQRSDVYSDLNTQRPYYK		tumor eradication by DAP12-modified T cells [2]: require the mesothelin-specific KIR-based CAR for tumor eradication
